Here are results for two substances from patent EP2654803B1, “RADIOLABELED HER2-BINDING PEPTIDE CONJUGATES” (General Electric Company, priority 2010, dated 2021).

Read-outs that look alike come from different tables or passages of the source.

In data set [1] the test system is SKOV3 tumors. Also on record: species or system female CD-1 nude mice. Conditions: mouse, in vivo. The method, then: In vivo studies were carried out with female CD-1 nude mice (Charles River Labs, Hopkinton, MA) with an age range between 6 and 15 weeks. Mice were housed in a ventilated rack with food and water ad libitum and a standard 12 hour day-night lighting cycle. For xenografts, animals were injected with 100 µl of cells in PBS. Cells were implanted subcutaneously in the right hindquarter. Implantation was performed under isoflurane anesthesia. For SKOV3, between 3 x 10^6 to 4 x 10^6 cells were implanted in each mouse. Under these conditions, useable tumors ([…]) were obtained in 3 to 4 weeks in greater than 80% of animals injected. Mice were given tail-vein injections of ∼1 ug of ^18F-labeled polypeptide (∼4 uCi/1 µg). Mice were placed in filter-paper lined cages until euthanasia. Three mice were euthanized at each timepoint and tissues of interest dissected and counted on a Perkin Elmer Wallac Wizard 1480 Gamma Counter. Data were collected for blood, kidney, liver, spleen, bone and injection site (tail). Urine from cages was pooled with the bladder and also counted. The remaining tissues were counted and the sum of all tissues plus urine for each animal was summed to provide the total injected dose. The percent injected dose for each organ was determined based on this total, and organs were weighed for determination of the percent injected dose per gram, (%ID/g). […]

In data set [2] the test system is SKOV3 tumors. Also on record: species or system female CD-1 nude mice. Conditions: mouse, in vivo. The method, then: Synthesis of the radiolabeled polypeptide was performed using a one-step kit formulation produced in house (Chelakit A+) containing a lyophilized mixture of stannous chloride as a reducing agent for technetium, methylene diphosphonic acid, p-aminobenzoate as a free-radical scavenger and sodium bicarbonate/sodium carbonate (pH 9.2) as buffer. In rapid succession, 20 µL of a 2 µg/µL solution of polypeptide in saline was added to the Chelakit, followed immediately by Na^99mTcO4 (0.8 mCi, 29.6 MBq) in 0.080 mL of saline (0.15M NaCl) obtained from Cardinal Health (Albany, NY). The mixture was agitated once and allowed to sit at ambient temperature for 20 min. Upon completion, the crude radiochemical yield was determined by ITLC (Table 6 below according to ITLC-SG, Biodex, 0.9% NaCl). […]
Mice were given tail-vein injections of ∼1 ug of ^99mTc-labeled polypeptides (∼10 µCi/1 µg). […] Three mice were euthanized at each timepoint and tissues of interest dissected and counted on a Perkin Elmer Wallac Wizard 1480 Gamma Counter. […] Urine from cages was pooled with the bladder and also counted. The remaining tissues were counted and the sum of all tissues plus urine for each animal was summed to provide the total injected dose. The % injected dose for each organ was determined based on this total, and organs were weighed for determination of the % injected dose per gram, (%ID/g). […]
The source holds these as a separate data set.

As to “Z02891 (SEQ. ID No. 2) 18F-fluorobenzyl oxime: Z02891-ONH2 (Mal-AO on cysteine) reacted with [18F]4-fluorobenzaldehyde”, in data set [1], the “kidneys, ID/organ” value turned out to be 0.95±0.07 ID/organ and the “uptake in the liver” value is reported as “ca. 1.8 %ID/organ”.
Regarding “Z02891 (SEQ. ID No. 2) cPN216: Z02891 polypeptide conjugated with Mal-cPN216 via a terminal cysteine and labeled with 99mTc”, in data set [2], the “kidneys, ID/organ” value worked out at 10.58 ± 2.96 ID/organ and the “uptake in the liver” value is recorded as 12 %ID/organ.
